Experimental findings from patent publication US20070092518A1 (published 2007) are described below.

Residue numbers refer to the chain shown, from its start.

Sequences and labels used below:
B1: SEQ ID NO 106 (Fab, V domains shown)
VH: EVQLVESGGGLVQPGGSLRLSCAASQFIFSNHWMNWVRQAPGKGLEWIGEIRSKSSNGATSYAESVKGRFIISRDGNKTDLTLEMNSLKTEDTAEYYCAQNYYGSTYDYWGQGTLVTVS
VL: EIVLTQSPDFQSVTPKEKVTITCRASQFVGSSIHWYQQKPDQSPKLLIKYASESMSGVPSRFSGSGSGTDFTFTISSLEAEDAATYYCQQSHSWPFTFGPGTKVDIK
notes: Fab, E. coli lysate
B2: SEQ ID NO 117 (Fab, V domains shown)
VH: B1 VH with V5T, I28T, G58S, S61H, D80S, Q100R, Y107P
VL: B1 VL
notes: Fab, E. coli lysate
B3: SEQ ID NO 146 (Fab, V domains shown)
VH: B1 VH with Q26G, S56I, S61H, T79N, Q100R, Y107P
VL: B1 VL
notes: Fab, E. coli lysate
B4: SEQ ID NO 140 (Fab, V domains shown)
VH: EVQLTESGGGLVQPGGSLRLSCAASGSTFSNHYMNWVRQAPGKGLEWIGEIRSKSSNSATHYAESVKGRFIISRDDNGTSLYLEMNSLKTEDTAEYYCARNYYGSTYDYWGQGTLVTVS
VL: B1 VL
notes: Fab, E. coli lysate
B5: SEQ ID NO 111 (Fab, V domains shown)
VH: B4 VH with A23R, S27F, T28I, S56I, T79N, Y107P
VL: B1 VL
notes: Fab, E. coli lysate
B6: SEQ ID NO 161 (Fab, V domains shown)
VH: B4 VH with A23R, S27F, T28I, Y33W, S56I, N57Y, T79N, S80D, R100Q, Y107P
VL: B1 VL
notes: Fab, E. coli lysate
B7: SEQ ID NO 158 (Fab, V domains shown)
VH: B1 VH with A23R, S56I, N57Y, S61H, G76D, T79N, T82Y, Q100R, Y107P
VL: B1 VL
notes: Fab, E. coli lysate
B8: SEQ ID NO 150 (Fab, V domains shown)
VH: B4 VH with T5V, G26Q, S27F, S56I, S58G, H61S, S80D
VL: B1 VL
notes: Fab, E. coli lysate
B9: SEQ ID NO 156 (Fab, V domains shown)
VH: B4 VH with G26Q, Y33W, S56I, H61S, G78K, T79N, S80D, Y82T
VL: B1 VL
notes: Fab, E. coli lysate
B10: SEQ ID NO 131 (Fab, V domains shown)
VH: B4 VH with G26Q, S27F, H61S, D76G, Y82T, R100Q
VL: B1 VL
notes: Fab, E. coli lysate
B11: SEQ ID NO 134 (Fab, V domains shown)
VH: B4 VH with T28I, Y33W, S56I, S58G, D76G, Y107P
VL: B1 VL
notes: Fab, E. coli lysate
B12: SEQ ID NO 144 (Fab, V domains shown)
VH: B1 VH with A23R, Q26G, F27S, W33Y, G58S, T79N, T82Y
VL: B1 VL
notes: Fab, E. coli lysate
B13: SEQ ID NO 148 (Fab, V domains shown)
VH: B1 VH with A23R, W33Y, S56I, N57Y, K78G, T79N, T82Y
VL: B1 VL
notes: Fab, E. coli lysate
B14: SEQ ID NO 109 (Fab, V domains shown)
VH: B4 VH with T5V, A23R, T28I, Y33W, G78K, T79N, S80D, Y82T
VL: B1 VL
notes: Fab, E. coli lysate
B15: SEQ ID NO 164 (Fab, V domains shown)
VH: B4 VH with T28I, S56I, N57Y, D76G, S80D
VL: B1 VL
notes: Fab, E. coli lysate
B16: SEQ ID NO 162 (Fab, V domains shown)
VH: B1 VH with W33Y, N57Y, G58S, S61H, T79N, Q100R
VL: B1 VL
notes: Fab, E. coli lysate
B17: SEQ ID NO 130 (Fab, V domains shown)
VH: B4 VH with T5V, A23R, S27F, T28I, S56I, N57Y, T79N, R100Q
VL: B1 VL
notes: Fab, E. coli lysate
B18: SEQ ID NO 124 (Fab, V domains shown)
VH: B4 VH with T5V, G26Q, D76G, G78K, T79N, S80D, Y107P
VL: B1 VL
notes: Fab, E. coli lysate
B19: SEQ ID NO 151 (Fab, V domains shown)
VH: B1 VH with W33Y, S56I, N57Y, S61H, K78G, T79N, D80S, Q100R, Y107P
VL: B1 VL
notes: Fab, E. coli lysate
B20: SEQ ID NO 141 (Fab, V domains shown)
VH: B4 VH with T5V, Y33W, S56I, N57Y, S58G, H61S, D76G, G78K, T79N
VL: B1 VL
notes: Fab, E. coli lysate
B21: SEQ ID NO 136 (Fab, V domains shown)
VH: B4 VH with G26Q, T28I, Y33W, S56I, N57Y, R100Q, Y107P
VL: B1 VL
notes: Fab, E. coli lysate
B22: SEQ ID NO 135 (Fab, V domains shown)
VH: B1 VH with F27S, G58S, T82Y
VL: B1 VL
notes: Fab, E. coli lysate
B23: SEQ ID NO 145 (Fab, V domains shown)
VH: B4 VH with A23R, G26Q, S58G, H61S, T79N, S80D, R100Q
VL: B1 VL
notes: Fab, E. coli lysate
B24: SEQ ID NO 108 (Fab, V domains shown)
VH: B1 VH with V5T, I28T, W33Y, S56I, N57Y, G58S, T79N, D80S
VL: B1 VL
notes: Fab, E. coli lysate
B25: SEQ ID NO 126 (Fab, V domains shown)
VH: B4 VH with T5V, A23R, S56I, N57Y, D76G, G78K, T79N, R100Q
VL: B1 VL
notes: Fab, E. coli lysate
B26: SEQ ID NO 138 (Fab, V domains shown)
VH: B4 VH with A23R, S27F, T28I, H61S, D76G, G78K, T79N, S80D, Y107P
VL: B1 VL
notes: Fab, E. coli lysate
B27: SEQ ID NO 155 (Fab, V domains shown)
VH: B4 VH with G26Q, Y33W, N57Y, H61S, G78K, T79N
VL: B1 VL
notes: Fab, E. coli lysate
B28: SEQ ID NO 157 (Fab, V domains shown)
VH: B4 VH with A23R, T28I, Y33W, S56I, N57Y, H61S, Y82T, R100Q, Y107P
VL: B1 VL
notes: Fab, E. coli lysate
B29: SEQ ID NO 112 (Fab, V domains shown)
VH: B4 VH with T5V, A23R, S27F, Y33W, S56I, N57Y, G78K, S80D, Y107P
VL: B1 VL
notes: Fab, E. coli lysate
B30: SEQ ID NO 159 (Fab, V domains shown)
VH: B1 VH with Q26G, S56I, N57Y, G58S, K78G, D80S, Q100R
VL: B1 VL
notes: Fab, E. coli lysate
B31: SEQ ID NO 127 (Fab, V domains shown)
VH: B1 VH with V5T, N57Y, G76D, K78G, T79N, D80S, Q100R, Y107P
VL: B1 VL
notes: Fab, E. coli lysate
B32: SEQ ID NO 163 (Fab, V domains shown)
VH: B1 VH with S56I, N57Y, G58S, S61H, G76D, Y107P
VL: B1 VL
notes: Fab, E. coli lysate
B33: SEQ ID NO 149 (Fab, V domains shown)
VH: B4 VH with A23R, G26Q, S27F, T28I, N57Y, T79N, R100Q
VL: B1 VL
notes: Fab, E. coli lysate
B34: SEQ ID NO 132 (Fab, V domains shown)
VH: B1 VH with F27S, W33Y, S56I, N57Y, G76D, T79N, D80S, Q100R, Y107P
VL: B1 VL
notes: Fab, E. coli lysate
B35: SEQ ID NO 137 (Fab, V domains shown)
VH: B4 VH with T5V, N57Y, H61S, D76G, S80D, Y82T, R100Q
VL: B1 VL
notes: Fab, E. coli lysate
B36: SEQ ID NO 115 (Fab, V domains shown)
VH: B4 VH with T5V, A23R, T28I, S56I, D76G, R100Q
VL: B1 VL
notes: Fab, E. coli lysate
B37: SEQ ID NO 110 (Fab, V domains shown)
VH: B1 VH with Q26G, F27S, S56I, G58S, G76D, T82Y, Y107P
VL: B1 VL
notes: Fab, E. coli lysate
B38: SEQ ID NO 118 (Fab, V domains shown)
VH: B4 VH with T5V, G26Q, S27F, Y33W, S56I, H61S, G78K, T79N, Y107P
VL: B1 VL
notes: Fab, E. coli lysate
B39: SEQ ID NO 123 (Fab, V domains shown)
VH: B4 VH with A23R, G26Q, S27F, N57Y, S58G, H61S, T79N, S80D
VL: B1 VL
notes: Fab, E. coli lysate

The experiment deals with T1, human tumor necrosis factor-α (rHuTNF-alpha, Biosource) (human, UniProt P01375 77-233).
T1 construct: Bought recombinant protein coated on ELISA plates; The TNFα of the Biacore assay is not described further; also called TNFα; human TNFα
T1 sequence (P01375 77-233 limits assumed): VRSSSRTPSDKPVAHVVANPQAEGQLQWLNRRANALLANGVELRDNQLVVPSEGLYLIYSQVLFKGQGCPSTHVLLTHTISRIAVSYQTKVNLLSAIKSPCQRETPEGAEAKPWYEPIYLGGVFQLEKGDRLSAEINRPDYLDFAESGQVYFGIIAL
Briefly: solid-phase ELISA, Fab lysate on coated rHuTNF-alpha. Put shortly: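 E. coli lysates expressing His-tagged Fab (pTrcHis2A) were incubated 2 h at RT on wells coated with 1 μg/ml rHuTNF-α and blocked with BSA. Bound Fab was detected with biotinylated anti-human kappa plus penta-His conjugates, then streptavidin-POD and TMB. Absorbance was read at 450 nm.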
On the technique in general: An ELISA detects its analyte on a solid surface through an enzyme-linked reagent.
With B1, the binding result was “binds”.

Take B2: the binding result is recorded as “binds”.

On to B3, for which the binding result is recorded as “binds”.

Turning to B4, the binding result is given as “binds”. In the case of B5, the binding result is “binds”. Next, B6: “binds”; B7: “binds”. Next, B8: “binds”; B9: “binds”. As for B10, the entry is “binds”; as for B11, “binds”; as for B12, “binds”. B13: the binding result is listed as “binds”. Next, B14: “binds”; B15: “binds”; B16: “binds”. As for B17, the entry is “binds”; as for B18, “binds”. Regarding B19, the binding result is recorded as “binds”. In the case of B20, the binding result is listed as “binds”. With B21, the binding result was “binds”. Turning to B22, the binding result is on record as “binds”. As for B23, the entry is “binds”; as for B24, “binds”. B25: the binding result is on record as “binds”. Next, B26: “binds”; B27: “binds”. Next, B28: “binds”; B29: “binds”. Regarding B30, the binding result was “binds”. B31: the binding result was “binds”.

As for B32, the binding result is listed as “binds”. Next, B33: “binds”. B34: the binding result is recorded as “binds”. As for B35, the entry is “binds”; as for B36, “binds”; as for B37, “binds”.

For B38, the binding result is on record as “binds”. As for B39, the entry is “binds”.
